Measurements reported in the DeepSol protein solubility set.

Assay: soluble on expression in E. coli; label from the status in PepcDB or PDB records

Sequence | soluble on expression in E. coli
MKGNRQRIQPKNIFQAVIDSPLSDQEKEVLTFLYQPIVGANAFSLYWLLLSETTDSEENGSLFHADLISLLDLSCQQLEEACYKLEGIGLLETYKKTDRELGDCYLYYLKAPETAARFFKDEVLALVLFNRVGQRKFDQLVQKFQPHPTKTEGYQNVSASFQEVYAFKEEQIVSEANRLTTIQETFSQKEKSKKISVSTDSFDWHYFVEGLHRLGLQLPEDEASFQEEVYVFHQLYGINELDMVDFASKSFDYYTSRILPKELVRTIHQAFDPDKKPQSTNVVTNKQAQLTVEEQQTYRYNALKMNGFSELDIQMIMDSEKNPPIQYLEALKNSRGGYTTPQERSLVKYLVAKSGLPTSVINILINYVYNIQQQPTLKAEYVNRIANEWGQSGIHSPEKAIEHVRELAKQSQTKQKQRQQNYSGKRQTVRQERLPEWADQPNDETKLSPEEQAELDRQIQEFLNQGGDQ | not soluble
MKVPRLIVAGTESGAGKTTITISIILKLLANQMKVKPYKIGPDYIDPQFHRLASGVPSENLDLWMMNDDQIRYLLIEGSREFDISVIEGVMGLFDGAGSDFTGSTYDLARRTGTPIVLVIDGYGISATAAAIVSGIKAYAGELLRGVIVTRVSGESHYRLIRDAVEEKTGVPVLGYMIRNEKAVLESRHLGLVQAYEIDEIREIFGAIDSSTVIDMHQIIDIARSADKLETLYSPEIERLGTFKVSVAMDSAFDFYYEENLRMLKRMGASIRYFSPMGNEVPDADSDLIYLGGGYPEVFAGKLQSATDTIEAIRHAASIGTGVYAECGGYMFLCRSLESTDGHIYGGVGIIPASVYMDASLVIGYREISAKRDTSILRAGETARGHEFHKSRIRFDGPYDHPFVLKSRSSSFEDGFSSGSVTATYAHIHFLSNPRVAENLLIALEHHHHHH | not soluble
MMKFDWNNPYPSTRIPVFARNVVATSHPLAAQAGLRILALGGNAADAAVASAATLALVEPASNGLGSDCFALVWDGARLHGLNASGTAPAAWSPGYFQRKHQGAIPLRGWDSVTIPGCVAGWASLHDKLGSLPFADVLAPAIEYAERGFAVPPTVQRRWADQVDPLRSLPGFAEHFLPHGRAPEVGEHFVLAGAAATLRRIAASGGRDFYEGETAQKLVAHAQAHEAALTLGDLRDYAPQWVEPISQAYRGHALHQLPPNGQGLAALIALGIVEHFDLASRPAEHPDTQHILIEAMKLAFADVHAHVADAAHIRIRVEQLLDPAYLAERARLIDLRRARVYNAAQAPQGGTVYLACADRNGMMVSFTQSNYMGFGSGIVVPGTGISLQNRGCCFSMDPDHPNVVGGGKRPFHTGIPAFLTQDGAPLMSFGIMGGNMQPQGHLQALVRMLDYRQQPQAACDAPRWKWNRGLSVDIEAAMPAQVTDALRARGHIVEVAAPADKDFGSGQFIWRLGDPAVDGYVAASDSRRDGLAAGFLEHHHHHH | not soluble
MTKVTIKAPSDYLQTDWSGGETNQLFLYPEDGDYKKREFSYRLSTATVALRQTTFTRLDGYHRILMSLDKPITLSDLSHAKEISLAPFQPYAFEGDTRIVSRGTCQDINLMYDDQYQGQLLPVWSDTPFEAPKADCQLLYALSKLTYSVTNQANQELEANHLLVTEQEASLSDLKVCLNQTSPAQTPVAVWAGLWYKT | not soluble
MPLITTETGKKMHVLEDGRKLITVIPGDGIGPECVEATLKVLEAAKAPLAYEVREAGASVFRRGIASGVPQETIESIRKTRVVLKGPLETPVGYGEKSANVTLRKLFETYANVRPVREFPNVPTPYAGRGIDLVVVRENVEDLYAGIEHMQTPSVAQTLKLISWKGSEKIVRFAFELARAEGRKKVHCATKSNIMKLAEGTLKRAFEQVAQEYPDIEAVHIIVDNAAHQLVKRPEQFEVIVTTNMNGDILSDLTSGLIGGLGFAPSANIGNEVAIFEAVHGSAPKYAGKNVINPTAVLLSAVMMLRYLEEFATADLIENALLYTLEEGRVLTGDVVGYDRGAKTTEYTEAIIQNLGKTPRKTQVRGYKPFRLPQVDGAIAPIVPRSRRVVGVDVFVETNLLPEALGKALEDLAAGTPFRLKMISNRGTQVYPPTGGLTDLVDHYRCRFLYTGEGEAKDPEILDLVSRVASRFRWMHLEKLQEFDGEPGFTKAQGED | soluble
MCANIGVDPLASNKGFWAELLGIGDFYYELGVQIIEVCMLTRSHNGGLISLQELCNHLRQRRKKDREAVTEDDCLRAISKLKVLGSGFEVITIGKKKLVRSVPTELNKDHNQILELAQGQGFVIVEEVQRRLSWTSGRVIDALETLLEEGLAMIDNGHKDGKCRYWFPCVSSVYSSIGSDT | soluble
MGSDKIHHHHHHMKHGILVAYKPKGPTSHDVVDEVRKKLKTRKVGHGGTLDPFACGVLIIGVNQGTRILEFYKDLKKVYWVKMRLGLITETFDITGEVVEERECNVTEEEIREAIFSFVGEYDQVPPAYSAKKYKGERLYKLAREGKIINLPPKRVKIFKIWDVNIEGRDVSFRVEVSPGTYIRSLCMDIGYKLGCGATAVELVRESVGPHTIEESLNVFEAAPEEIENRIIPLEKCLEWLPRVVVHQESTKMILNGSQIHLEMLKEWDGFKKGEVVRVFNEEGRLLALAEAERNSSFLETLRKHERNERVLTLRKVFNTR | not soluble
MSETKERLCIYADFPYEFAVCAPRTDCPKREQCLRASAYDGVLARGLQKITVINPLIPTSEQGCKAFADNTPVLFAHGITHLYDELPHHAVQSLKHRLLTYFGKTTYYRIYRKERYITIQEQDYIRDSFVRAGFSSDLIRYDAMVYMYELQSAMVKSD | not soluble
HIPEMGGQHYLGDSLDKDWRVTRDNQQFAFEYQDNEGQAQSKVLTLKVGDNLEEVATYINAQQSVVDASVTQDHQLQFFTSTLNAPEGITWKGNFADEMDIGSGELVTVDDLDMSTVGGAQLAIGVVDAAIKYVDSHRSEIGGFQNRVSGTIDNLNTINRSVSESKGRIRDTDFARESTVMVRSQVLQDATTALLAQAKQRPSSALGLLS | not soluble
MGSDKIHHHHHHMMHDDQVNIDIDIARKMIRDQFPQYRHEDITSVGSSGTVNAIFRIGSKSAARFPLRAMNPTECADMLRSEAAAMVEIGKHCLFPTPQPIGIGEPGPRYPMPWALQTWIEGEVATPHGLSGSTMFALDLARLVASLRQADTRGRRFDGQGRGGHLPDHDDWMAVCLENSEGLLDVARLRDLWARLRELPCAGSVVMSHKDLIPANLLVQGERLVGVLDGGSFGPADPSLDLVVGWHLLDRERRAAFRSGLQVEDLLWKRGAAWAFQQAMGLVWYYRRTNRAMSALGRSTLSRILADPDI | not soluble
MSDHFVSERQALILAQLRQSGRVLAQDLAQNFGVSEDTVRRDLREMAARGECLRVYGGALLSDSTTVPLKTRITEDADRKATLARAVVPLIEPGMVVFIDAGSTNLAIARAIPAGLNLTVVTNTPAIAADLTGRADIDLVLIGGKVDPAVGAAIDAMALRQLELMRPDLCVLGVCGVAAETGLSADVFEDAVFKRLACSASQRVIAAITTEKLGHKAAFHVHDFSPPLCLVLERDADRALVESLSAQGVDVYCGEDDAAPFSHGQVLEHHHHHH | soluble
MSLFDFFKNKGSAATATDRLKLILAKERTLNLPYMEEMRKEIIAVIQKYTKSSDIHFKTLDSNQSVETIEVEIILPR | not soluble
MTIATSVAGSSENFAELFNESLSHKEMRVGEVITAEIIRVDYNFVVVNAGLKSESYIPIEEFKNDRGEIEAREGDFVSVAIEALENGFGETRLSRDKAKRLNAWYELEEAMEKGKIVTGMVNGKVKGGLTATINGIRAFLPGSLVDIRPVKDMTPYENKEMEFKVIKLDRKRNNVVVSRRAVLEETQGADRDELLASLQDGAVVQGIVKNITDYGAFVDLGGIDGLLHITDLAWRRVKHPTEVINVGDEVTAKVLKFDQEKNRVSLGLKQLTEDPWIGLSRRYPQGTRIFGKVTNMTDYGAFVEIEQGIEGLVHVSEMDWTNKNVYPSKIVQLGDEVEVMILEIDEDRRRISLGMKQCRPNPWEEFSLSHEKGDKVTGQIKSITDFGLFIGLPGNIDGLVHLSDLSWNQPGEKAISEFKKGDEVEAVVLSIDVEKERISLGIKQLEGDPFNIYVASHDKNSIVKGTVKSVDAKGAVIALTDEVEGYLRASEFSRDKIEDIRSRVNEGDEIEAMIINIDRKNRSISLSVKARIQDEEDKAVKSLASVSNPASAGTTNLGALLKAKIDSKSSEELEHHHHHH | soluble
MGSDKIHHHHHHMKIVKNFRDINTLIPGWGDKMSEVSIFDIWKGTKFGESVLMEFDSLSFSPLGVYSLAYWARMKGFKVSVVDVLDTLKIYLSYAKMIGLGTSIANDIEVIKLGGRIDSGNVSTRIPITEEKVMEKELMKLYPHEDNEKTIVIVLGIEKFLALWCKLLPDILSFLNFMLSFVGEEWMKSFYFINVDLMKDFSFPALSMLEELSTTVVEISKRGPVLHYIVRKALNPEIDSLEGEIHIKELISEIENPIES | not soluble
MSEKEIWDKVLEIAQERISNTSYQTFIKDTQLYSLKNDEAIILVSLPFNASWLNQRYSEIMQAIIYDVIGYEVKPHFISEDELASYNNVNTQEVQEPQVQHSSIDDKTWGKEQFNMHNTFDTFVIGPGNRFPHAASLAVAEAPAEAYNPLFIYGGVGLGKTHLMHAIGHHVLSNKPNAKVIYTSSEKFTNEFIKSIRDNETEAFREKYRKIDVLLIDDIQFIQNKEQTQEEFFHTFNELHQNNKQIVISSDRPPKEIAKLEDRLRSRFEWGLIVDITPPDYETRMAILQKKIEEENLDIPPEALNYIANQIQSNIRELEGALTRLLAYSKLQGKPITTELTAEALKDIIQSPKSKKITIQDIQKVVGQYYSVRIEDFSAKKRTKSIAYPRQIAMYLSRELTDFSLPKIGEEFGGRDHTTVIHAHEKIANDIKSDPTFKQEVENLEKEIRNQLEHHHHHH | not soluble
MSLTGQLHPAVRVADLLQHINQMKTAEGYGFKQEYESFFEGWDATKKKDKVKGSRQEPMPAYDRHRVKLHPMLGDPNADYINANYIDGYHRSNHFIATQGPKPEMVYDFWRMVWQEHCSSIVMITKLVEVGRVKCSRYWPEDSDTYGDIKIMLVKTETLAEYVVRTFALERRGYSARHEVRQFHFTAWPEHGVPYHATGLLAFIRRVKASTPPDAGPIVIHCSAGTGRTGCYIVLDVMLDMAECEGVVDIYNCVKTLCSRRVNMIQTEEQYIFIHDAILEACLCGETTIPVSEFKATYKEMIRIDPQSNSSQLREEFQTLNSVTPPLDVEECSIALLPRNRDKNRSMDVLPPDRCLPFLISTDGDSNNYINAALTDSYTRSAAFIVTLHPLQSTTPDFWRLVYDYGCTSIVMLNQLNQSNSAWPCLQYWPEPGRQQYGLMEVEFMSGTADEDLVARVFRVQNISRLQEGHLLVRHFQFLRWSAYRDTPDSKKAFLHLLAEVDKWQAESGDGRTIVHCLNGGGRSGTFCACATVLEMIRCHNLVDVFFAAKTLRNYKPNMVETMDQYHFCYDVALEYLEGLESREGHHHHHH | soluble
MAHHHHHHMERCLLLSAWPTLHEREVKEASEFVRSSSVSRRDSMALSLNHAGAFPSASHSGTHRGSFATMLATGSRAASPHPHDPCATPPPGIRCLDLPEHYHARDTRKNKSAVNDYDEDEDDGAYRSGSCSRCLSRASSFSLGAGGMTPLAWKMSSSMNGESPSCRATESPCSAFAQEHLVATAVMERRVNRMAGGISFQGMTPMDALLAGRLAPPDRREEQQELDESGDARGVSPPFRERSMAPAELVAERTGRQQPR | not soluble
